Source: publication PMC8429977, “Phosphorylation of slit diaphragm proteins NEPHRIN and NEPH1 upon binding of HGF promotes podocyte repair” (The Journal of Biological Chemistry, 2021)
Values belong to the binder of their own block, whether it stands above or below them.

Target: T1, purified human recombinant HGF (human, UniProt P14210 32-728)
T1 construct: hepatocyte growth factor, human, recombinant, purified; also called hepatocyte growth factor; recombinant human active HGF; source: bought: Sigma
T1 sequence (P14210 32-728): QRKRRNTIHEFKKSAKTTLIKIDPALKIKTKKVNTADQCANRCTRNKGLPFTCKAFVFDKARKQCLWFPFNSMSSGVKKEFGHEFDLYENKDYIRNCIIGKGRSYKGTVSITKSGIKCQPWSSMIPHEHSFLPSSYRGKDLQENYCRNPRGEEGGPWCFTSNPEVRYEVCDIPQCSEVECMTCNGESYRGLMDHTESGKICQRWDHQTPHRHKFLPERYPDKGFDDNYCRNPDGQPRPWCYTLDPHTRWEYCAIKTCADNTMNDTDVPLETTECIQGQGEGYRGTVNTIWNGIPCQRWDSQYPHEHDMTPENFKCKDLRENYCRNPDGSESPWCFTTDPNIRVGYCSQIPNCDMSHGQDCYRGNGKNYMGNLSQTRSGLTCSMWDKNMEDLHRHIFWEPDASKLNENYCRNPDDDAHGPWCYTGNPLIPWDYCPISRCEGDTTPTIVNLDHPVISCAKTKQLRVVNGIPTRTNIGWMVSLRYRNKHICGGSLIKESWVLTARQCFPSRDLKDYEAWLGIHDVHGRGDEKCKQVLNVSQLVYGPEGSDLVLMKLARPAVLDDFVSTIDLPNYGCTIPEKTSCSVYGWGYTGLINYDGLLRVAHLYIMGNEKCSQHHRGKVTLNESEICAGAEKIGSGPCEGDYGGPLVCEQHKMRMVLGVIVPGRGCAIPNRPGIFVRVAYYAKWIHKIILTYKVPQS
Assay: far-Western, overlay or dot blot; 300 ng peptide spotted on nitrocellulose, blocked with fat-free milk, incubated with 1 μg recombinant purified HGF in 5% BSA in PBS at 4 °C, detected with anti-HGF antibody
Settings: both partners purified

binding result: binds
B1: NEPHRIN Peptide-1 (peptide)
peptide: PDITILLSGQTISDISANVNEGSQQKL
notes: also called NEPHRIN-P1; NEPHRIN P1; source: synthetic peptide (Fmoc solid phase, HPLC purified)

binding result: binds
B2: NEPH1 Peptide-1 (peptide)
peptide: QEGERVVFTCQATANPEIL
notes: also called NEPH-P1; NEPH1-P1; source: synthetic peptide (Fmoc solid phase, HPLC purified)
